Where a chain is given by its changes, count along the chain named.
Tests used:
Assay in all cases: SEC; purified recombinant AtPDC E1 on a Superose 12 column in 50 mM TES-NaOH, pH 7.4, 50 mM NaCl, 0.1 mM TPP, 0.2 mM MgCl2; fractions analysed by SDS-PAGE and immunoblotting
Conditions in all cases: both partners purified
[1] = target: T1, AtPDC E1α S292D mutant, H6-tagged (Arabidopsis thaliana, UniProt P52901 18-389, S292D)
T1 sequence (looked up): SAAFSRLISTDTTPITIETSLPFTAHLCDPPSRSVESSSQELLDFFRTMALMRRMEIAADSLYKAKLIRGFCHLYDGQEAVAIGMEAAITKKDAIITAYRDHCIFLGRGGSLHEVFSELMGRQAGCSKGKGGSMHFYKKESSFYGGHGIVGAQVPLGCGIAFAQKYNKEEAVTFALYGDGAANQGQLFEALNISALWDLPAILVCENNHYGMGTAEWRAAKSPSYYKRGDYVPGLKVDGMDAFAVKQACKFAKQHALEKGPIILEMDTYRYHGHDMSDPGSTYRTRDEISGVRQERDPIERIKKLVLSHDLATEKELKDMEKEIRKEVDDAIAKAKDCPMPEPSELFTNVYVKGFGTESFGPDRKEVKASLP

[2] = target: T2, AtPDC E1α S292D/S298A double mutant, H6-tagged (Arabidopsis thaliana, UniProt P52901 18-389, S292D | S298A)
T2 sequence (looked up): T1 sequence (looked up) with S281A

[3] = target: T3, AtPDC E1α S292A mutant, H6-tagged (Arabidopsis thaliana, UniProt P52901 18-389, S292A)
T3 sequence (looked up): T1 sequence (looked up) with D275A

[4] = target: T4, AtPDC E1α G297D mutant, H6-tagged (Arabidopsis thaliana, UniProt P52901 18-389, G297D)
T4 sequence (looked up): T1 sequence (looked up) with D275S, G280D

[5] = target: T5, AtPDC E1α S298A mutant, H6-tagged (Arabidopsis thaliana, UniProt P52901 18-389, S298A)
T5 sequence (looked up): T1 sequence (looked up) with D275S, S281A

binding result [1]: binds
binding result [2]: binds
binding result [3]: binds
binding result [4]: binds
binding result [5]: binds
B1: Arabidopsis thaliana mitochondrial pyruvate dehydrogenase E1β subunit (AtPDC E1β), FLAG-tagged (enzyme, UniProt Q38799 30-363, looked up)
chain: AAGAKEMTVRDALNSAIDEEMSADPKVFVMGEEVGQYQGAYKITKGLLEKYGPERVYDTPITEAGFTGIGVGAAYAGLKPVVEFMTFNFSMQAIDHIINSAAKSNYMSAGQINVPIVFRGPNGAAAGVGAQHSQCYAAWYASVPGLKVLAPYSAEDARGLLKAAIRDPDPVVFLENELLYGESFPISEEALDSSFCLPIGKAKIEREGKDVTIVTFSKMVGFALKAAEKLAEEGISAEVINLRSIRPLDRATINASVRKTSRLVTVEEGFPQHGVCAEICASVVEESFSYLDAPVERIAGADVPMPYAANLERLALPQIEDIVRASKRACYRSK

Source: paper PMC3034952 (Enzyme Research, 2011)
